# Results from patent US20240368668A1, “SUBSTRATES AND BIOMARKERS OF ADAMTS7” (The Broad Institute, Inc., priority 2021, published 2024).
# Square brackets hold non-standard residues; d marks the D form. Ends that are not written are not given here. Met(O) = CS(=O)CC[C@H](N)C(=O)O
# Target: T1, mouse ADAMTS7 (Mus musculus, UniProt Q68SA9, E373Q)
# T1 construct: Full-length mouse Adamts7 1-1857 (Uniprot Q68SA9, WT or E373Q catalytic mutant); expressed in transfected cells; host or cells: Human Coronary Artery Smooth Muscle Cells (HCA-SMC, Lonza), adenovirus 50 MOI
# T1 sequence (Q68SA9 221-1657 E373Q): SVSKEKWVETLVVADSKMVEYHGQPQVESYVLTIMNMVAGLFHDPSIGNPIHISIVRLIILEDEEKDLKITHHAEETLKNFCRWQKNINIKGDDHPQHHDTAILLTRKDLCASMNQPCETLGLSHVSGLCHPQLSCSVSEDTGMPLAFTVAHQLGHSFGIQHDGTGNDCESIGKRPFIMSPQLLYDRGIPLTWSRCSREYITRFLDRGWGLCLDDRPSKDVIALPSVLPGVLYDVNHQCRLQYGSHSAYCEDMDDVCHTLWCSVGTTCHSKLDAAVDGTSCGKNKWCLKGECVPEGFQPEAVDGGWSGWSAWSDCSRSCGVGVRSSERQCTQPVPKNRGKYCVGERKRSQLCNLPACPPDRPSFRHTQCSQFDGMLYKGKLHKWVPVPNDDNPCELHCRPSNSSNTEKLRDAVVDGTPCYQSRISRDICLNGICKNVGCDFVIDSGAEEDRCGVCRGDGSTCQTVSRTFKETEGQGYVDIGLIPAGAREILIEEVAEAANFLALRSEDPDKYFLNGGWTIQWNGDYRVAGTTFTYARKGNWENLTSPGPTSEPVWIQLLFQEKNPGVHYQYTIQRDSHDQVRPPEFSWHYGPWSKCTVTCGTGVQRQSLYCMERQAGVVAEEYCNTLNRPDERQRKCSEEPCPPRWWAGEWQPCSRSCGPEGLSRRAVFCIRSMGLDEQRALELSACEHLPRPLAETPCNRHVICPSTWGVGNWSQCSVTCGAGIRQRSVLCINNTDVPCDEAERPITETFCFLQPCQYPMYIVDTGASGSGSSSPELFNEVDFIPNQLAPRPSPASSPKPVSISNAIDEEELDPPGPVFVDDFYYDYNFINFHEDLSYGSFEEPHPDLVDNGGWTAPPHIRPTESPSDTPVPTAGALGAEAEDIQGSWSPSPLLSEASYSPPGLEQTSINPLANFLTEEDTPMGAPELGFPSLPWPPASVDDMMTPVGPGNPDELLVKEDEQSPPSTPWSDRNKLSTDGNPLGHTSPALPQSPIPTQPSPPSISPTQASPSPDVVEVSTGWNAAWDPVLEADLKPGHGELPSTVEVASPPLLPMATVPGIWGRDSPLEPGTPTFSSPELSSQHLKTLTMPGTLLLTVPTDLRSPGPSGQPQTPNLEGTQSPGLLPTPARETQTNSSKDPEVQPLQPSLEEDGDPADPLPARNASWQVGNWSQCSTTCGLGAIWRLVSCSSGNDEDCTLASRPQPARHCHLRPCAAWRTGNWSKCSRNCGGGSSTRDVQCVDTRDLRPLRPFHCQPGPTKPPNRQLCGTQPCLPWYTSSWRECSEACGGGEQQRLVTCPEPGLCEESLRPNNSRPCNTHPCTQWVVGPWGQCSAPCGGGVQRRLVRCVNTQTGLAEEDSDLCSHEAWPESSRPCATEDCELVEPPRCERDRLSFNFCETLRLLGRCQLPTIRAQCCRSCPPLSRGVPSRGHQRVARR
# Assay: TMT10 TAILS N-terminomics, HUVEC experiment (process replicates, trypsin/AspN digest)
# Format: cell-based, human
# Settings: HUVEC TAILS HC; log fold change of N-terminal peptide, Ad-mADAMTS7 EQ over Luc
# Outline: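 Full-length mouse ADAMTS7 (WT or E373Q mutant, C-terminal 3xFLAG) or luciferase was transduced via adenovirus, 50 MOI, into HCA-SMC (SMC1, SMC2) or HUVEC. SMC1: pooled media, technical triplicates 400 ug; SMC2: process triplicates 300 ug; HUVEC: process triplicates 200 ug, bFGF2 10 ng/ml.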
row,Substance,logFC.mEQ.over.Luc
1,BICD1_280 (NNDDKMNGHIHGPLVKLNGDYR; listed as Homo sapiens),−0.08
2,CLU_267 (FQHPPTEFIR; listed as Homo sapiens),−0.08
3,CTGF_173 (TVVGPALAAYR; listed as Homo sapiens),−0.45
4,FN1_1624 (LVQTAVTTIPAPT; listed as Homo sapiens),−0.16
5,FN1_1743 (WESPQGQVSR; listed as Homo sapiens),−0.19
6,LTBP2_129 (QQQPAPR; listed as Homo sapiens),−0.49
7,LTBP3_164 (LSTGALPPLAPEG; listed as Homo sapiens),−0.39
8,LTBP3_221 (VQAPPPVVNVR; listed as Homo sapiens),−0.39
9,PSAP_301 (LVEPIKKH; listed as Homo sapiens),−0.06
10,PZP_578 (HAHLQVAAAPQSLCALR; listed as Homo sapiens),−0.34
11,THBS1_630 (FGQGVEHATANK; listed as Homo sapiens),−0.01
12,UQCRH_76 (HGSPNNSERAMRAVGE[Met(O)]CKGPGAAR; listed as Homo sapiens),0.01

# The remaining lines, values ahead:
row,logFC.mEQ.over.Luc,Substance
1,−0.39,ASMT_321 (LSSAGFR; listed as Homo sapiens)
2,−0.31,CTGF_174 (VVGPALAAYR; listed as Homo sapiens)
3,−0.09,LTBP2_253 (GEGTLAR; listed as Homo sapiens)
4,−0.13,LTBP3_205 (HAAFLVPLGPGQISA; listed as Homo sapiens)
5,0.14,MCFD2_55 (HLEGVINKPEA; listed as Homo sapiens)
6,0.06,PTBP1_376 (AAAAAGR; listed as Homo sapiens)
7,0.18,ZYX_244 (PVSLANTQPR; listed as Homo sapiens)
